Source: article PMC8892312 (Proceedings of the National Academy of Sciences of the …, 2022)
Substitutions are numbered along the chain they refer to. In names and notes the source's numbering stands.

B1: Gp46 from bacteriophage SPO1 (natural protein)
chain: MMTEDQKFKYLTKIEELEAGCFSDWTKEDITGDLKYLKKGIIEESIELIRAVNGLTYSEELHDFTQEIIEELDISPL
B2: Gp46^D63N (natural protein)
chain: B1 chain with D63N
B3: HU of Plasmodium falciparum (natural protein)
chain: RRAFINVHKNNIINNKLSVNNPYNKNALYQSSSKIPMSQAITKKQIIEEVSMETKENKKTVEKIMNGIFDNIYKHLENNEKIYIHKFGMFYNIFRKKRCIKNLRTKEDIEIESSHMPHFKFSKVFKELIKQNVKVKKGKGVSTNDHDLDEDDMNMDNINESFKENVNEKLIY
B4: HBsu (histone-like protein HU of B. subtilis), recombinant (natural protein)
chain: MNKTELINAVAEASELSKKDATKAVDSVFDTILDALKNGDKIQLIGFGNFEVRERSARKGRNPQTGEEIEIPASKVPAFKPGKALKDAVAGK
B5: dsDNA (DNA1/DNA2) (dsDNA)
DNA 1: TGCTTATCAATTTGTTGCACC
DNA 2: GGTGCAACAAATTGATAAGCA

Key:
[1] = target: B4; assay: ITC
[2] = target: B4; assay: SPR
[3] = target: HU of Acinetobacter baumannii (Acinetobacter baumannii); assay: ITC
[4] = target: T1, HBsu^I71A (Bacillus subtilis, UniProt P08821 1-92, I71A); assay: ITC
T1 sequence: B4 chain with I71A

[5] = target: T2, HBsu^R53N/R55N/R58N (Bacillus subtilis, UniProt P08821 1-92, R53N | R55N | R58N); assay: ITC
T2 sequence: B4 chain with R53N, R55N, R58N

[6] = target: B4; assay: ITC; remark: listed apart in the source
[7] = target: B1; assay: ITC
[8] = target: the molecule itself; assay: SEC-MALS
[9] = target: T3, HBsu (HU of B. subtilis) (Bacillus subtilis, UniProt P08821 1-92); assay: ITC
T3 sequence: B4 chain

B1
Kd [1]: 277 ± 50 nM
Kd [2]: 5870 ± 110 nM
Kd [3]: 300 nM
Kd [4]: 6410 ± 3540 nM
binding result [5]: binds

B2
binding result [6]: binds

B3
Kd [7]: ~300 nM

B4
binding result [8]: binds

B5
Kd [9]: 359 ± 38 nM
